We go through seven molecules from US20120225828A1 (PALATIN TECHNOLOGIES, published 2012).

The labels stand for the following.
B1: Ac-Nle-cyclo(Glu-His-D-Phe-Gly-Dab)-Trp-NH2 (SEQ ID NO: 50) (peptide)
peptide: Ac-[Nle]EH[dF]G[Dab]W-NH2
modifications: lactam 2-6
SMILES: CCCC[C@H](NC(C)=O)C(=O)N[C@H]1CCC(=O)NCC[C@@H](C(=O)N[C@@H](Cc2c[nH]c3ccccc23)C(N)=O)NC(=O)CNC(=O)[C@@H](Cc2ccccc2)NC(=O)[C@H](Cc2c[nH]cn2)NC1=O
B2: Ac-Nle-cyclo(Glu-His-D-Phe-Dab)-NH2 (peptide)
peptide: Ac-[Nle]EH[dF][Dab]-NH2
modifications: lactam 2-5
SMILES: CCCC[C@H](NC(C)=O)C(=O)N[C@H]1CCC(=O)NCC[C@@H](C(N)=O)NC(=O)[C@@H](Cc2ccccc2)NC(=O)[C@H](Cc2c[nH]cn2)NC1=O
B3: Ac-Nle-cyclo(Glu-His-D-Phe-Ala-Dab)-Trp-NH2 (SEQ ID NO: 51) (peptide)
peptide: Ac-[Nle]EH[dF]A[Dab]W-NH2
modifications: lactam 2-6
SMILES: CCCC[C@H](NC(C)=O)C(=O)N[C@H]1CCC(=O)NCC[C@@H](C(=O)N[C@@H](Cc2c[nH]c3ccccc23)C(N)=O)NC(=O)[C@H](C)NC(=O)[C@@H](Cc2ccccc2)NC(=O)[C@H](Cc2c[nH]cn2)NC1=O
B4: Ac-Nle-cyclo(Glu-His-D-Phe-Ala-Dab)-NH2 (SEQ ID NO: 48) (peptide)
peptide: Ac-[Nle]EH[dF]A[Dab]-NH2
modifications: lactam 2-6
SMILES: CCCC[C@H](NC(C)=O)C(=O)N[C@H]1CCC(=O)NCC[C@@H](C(N)=O)NC(=O)[C@H](C)NC(=O)[C@@H](Cc2ccccc2)NC(=O)[C@H](Cc2c[nH]cn2)NC1=O
B5: Ac-Nle-cyclo(Glu-His-D-Phe-Arg-Dab)-NH2 (SEQ ID NO: 47) (peptide)
peptide: Ac-[Nle]EH[dF]R[Dab]-NH2
modifications: lactam 2-6
SMILES: CCCC[C@H](NC(C)=O)C(=O)N[C@H]1CCC(=O)NCC[C@@H](C(N)=O)NC(=O)[C@H](CCCNC(=N)N)NC(=O)[C@@H](Cc2ccccc2)NC(=O)[C@H](Cc2c[nH]cn2)NC1=O

Bridge positions count the residues as written; N and C are the ends. Square brackets hold non-standard residues; d marks the D form. Nle = CCCC[C@H](N)C(=O)O; Dab = NCC[C@H](N)C(=O)O

For the assay, the target named is human melanocortin-1 receptor hMCR-1 expressed by the human melanoma cell line HBL (human, UniProt Q01726 1-317). The assay is described as follows: cell-based or functional assay.
Chain of human melanocortin-1 receptor hMCR-1 expressed by the human melanoma cell line HBL (Q01726 whole entry): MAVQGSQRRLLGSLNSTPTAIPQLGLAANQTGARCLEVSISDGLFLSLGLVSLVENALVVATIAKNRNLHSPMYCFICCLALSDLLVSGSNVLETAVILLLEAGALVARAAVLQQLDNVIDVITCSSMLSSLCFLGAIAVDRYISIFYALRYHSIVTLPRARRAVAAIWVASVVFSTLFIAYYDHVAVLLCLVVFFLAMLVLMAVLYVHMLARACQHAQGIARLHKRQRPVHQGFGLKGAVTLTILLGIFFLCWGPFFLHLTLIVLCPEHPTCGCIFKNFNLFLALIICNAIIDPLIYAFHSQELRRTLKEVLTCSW
Ac-[Nle]ER[dF]R[Dab]W-NH2 (lactam 2-6) [Ac-Nle-cyclo(Glu-Arg-D-Phe-Arg-Dab)-Trp-NH2 (SEQ ID NO: 53)]: the “MC-1 Emax (average; cAMP HBL)” value is 100%.
With B1, the “MC-1 EC50 (average; cAMP HBL)” value came to 4 nM and the “MC-1 Emax (average; cAMP HBL)” value worked out at 59%.
In the case of B2, the “MC-1 Emax (average; cAMP HBL)” value was 51%.
Still for that read-out and setting: in the case of Ac-[Nle]EA[dF]R[Dab]W-NH2 (lactam 2-6) [Ac-Nle-cyclo(Glu-Ala-D-Phe-Arg-Dab)-Trp-NH2 (SEQ ID NO: 52)] it was 86%.
With B3, the “MC-1 EC50 (average; cAMP HBL)” value was determined as 0.115 nM and the “MC-1 Emax (average; cAMP HBL)” value was 72%.
The corresponding values for B4 are 44 nM and 73%.
The corresponding values for B5 are 0.32 nM and 85%.
